Measurements from patent US20100260765A1 (AstraZeneca / MedImmune, published 2010).

How the values were obtained:
[1] = target: T1, mouse KDR (Flk-1)/Fc (Cat. #443-KD/CF, R&D Systems, Inc.) (mouse, UniProt P35918 20-762); assay: ELISA, Flk-1 coat 5 ug/mL, antibody 1 ug/mL
T1 construct: Bought reagent; also called mouse VEGFR2; KDR mouse ortholog; not shown: Fc of the bought fusion protein
Method in brief: (§1)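 Binding signal reports purified antibody captured on coated mouse KDR-Fc or on the KDR Ig4-7 domain in an ELISA format, with IgG1 and IgG4 isotype antibodies as comparators.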

soluble KDR Ig4-7 domain [2] = target: T2, soluble KDR Ig4-7 domain (human, UniProt P35968 328-764); assay: ELISA, KDR Ig4-7 coat (1:1 diln.), antibody 0.1 ug/mL
T2 construct: domain: Ig4-7 domain; also called b-KDRIg4-7-myc-his; Ig4-7 domain of KDR; not shown: myc-his tag of the pSecTag construct
Method in brief: as §1

cynomolgus KDR = target: T3, cynomolgus KDR (cynomolgus monkey, UniProt A0A2K5VE63 20-1356); assay: FACS on Cyno KDR/293T transfectants, antibody 5 ug/mL
T3 construct: whole, on cells; also called Cyno KDR

human KDR [3] = target: T4, human KDR (human, UniProt P35968 20-1356); assay: cell-based or functional assay
[4] = target: T1, mouse KDR (Flk-1)/Fc (Cat. #443-KD/CF, …); assay: ELISA, Flk-1 coat 5 ug/mL, antibody 0.1 ug/mL
Method in brief: as §1

[5] = target: T5, whole KDR-ECD (Cat. # 676490, Calbiochem) (human, UniProt P35968 20-764); assay: ELISA, KDR-ECD coat 5 ug/mL, antibody 1 ug/mL
T5 construct: extracellular domain; Bought soluble protein; also called soluble KDR; VEGF Receptor 2 D1-7
Method in brief: (§2)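 Coat wells with the recombinant receptor protein, add purified antibody, then detect the bound antibody by ELISA. Isotype IgG1 and IgG4 are run alongside as controls.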

human KDR [6] = target: T4, human KDR; assay: FACS competition on 293T/human KDR transfectants; antibody 5 ug/mL first, then competitor VEGF165 50 ng/mL; inhibition of VEGF binding
Protocol: (§3) Transfected cells were then seeded at 50,000 cells/well and incubated with 5 μg/mL of candidate antibody for one hour at 4° C. […] After washing, the cells were incubated with Cy5-conjugated rabbit anti-goat antibody plus 7AAD for 15 minutes at 4° C.

human KDR [7] = target: T4, human KDR; assay: FACS titration of purified antibody on HUVEC cells (FACS Kd)
Protocol: The binding affinities of the purified antibodies for endogenously-expressed KDR in HUVEC cells was measured. HUVEC cells were seeded at 150,000 cells/well and incubated with titrations of purified antibody for 4 hours at 4° C. The cells were then washed and incubated with goat anti-human IgG-Fc-Cy5+5 μg/mL 7-Amino-Actinomycin (7AAD) for 30 minutes at 4° C. Bound KDR was detected using FACS analysis.

soluble KDR Ig4-7 domain [8] = target: T2, soluble KDR Ig4-7 domain; assay: ELISA, KDR Ig4-7 coat (1:1 diln.), antibody 0.01 ug/mL
Method in brief: as §1

[9] = target: T1, mouse KDR (Flk-1)/Fc (Cat. #443-KD/CF, …); assay: ELISA, Flk-1 coat 5 ug/mL, antibody 0.01 ug/mL
Method in brief: as §1

human KDR [10] = target: T4, human KDR; assay: cell-based or functional assay; remark: listed apart in the source
human KDR [11] = target: T4, human KDR; assay: FACS competition on 293T/human KDR transfectants; antibody 5 ug/mL first, then competitor VEGF165 50 ng/mL; bound VEGF165 detected
Protocol: as §3

soluble KDR Ig4-7 domain [12] = target: T2, soluble KDR Ig4-7 domain; assay: ELISA, KDR Ig4-7 coat (1:1 diln.), antibody 1 ug/mL
Method in brief: as §1

[13] = target: T5, whole KDR-ECD (Cat. # 676490, …); assay: ELISA, KDR-ECD coat 5 ug/mL, antibody 0.01 ug/mL
Method in brief: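 Purified antibodies were tested by ELISA for binding to immobilised target protein to assess cross-reactivity with the mouse ortholog and binding to the soluble Ig4-7 fragment. IgG1 and IgG4 isotype antibodies served as controls.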

human KDR [14] = target: T4, human KDR; assay: cell-based or functional assay; remark: listed apart in the source
[15] = target: T5, whole KDR-ECD (Cat. # 676490, …); assay: ELISA, KDR-ECD coat 5 ug/mL, antibody 0.1 ug/mL
Method in brief: as §2

T3 sequence (A0A2K5VE63 entry or part of it): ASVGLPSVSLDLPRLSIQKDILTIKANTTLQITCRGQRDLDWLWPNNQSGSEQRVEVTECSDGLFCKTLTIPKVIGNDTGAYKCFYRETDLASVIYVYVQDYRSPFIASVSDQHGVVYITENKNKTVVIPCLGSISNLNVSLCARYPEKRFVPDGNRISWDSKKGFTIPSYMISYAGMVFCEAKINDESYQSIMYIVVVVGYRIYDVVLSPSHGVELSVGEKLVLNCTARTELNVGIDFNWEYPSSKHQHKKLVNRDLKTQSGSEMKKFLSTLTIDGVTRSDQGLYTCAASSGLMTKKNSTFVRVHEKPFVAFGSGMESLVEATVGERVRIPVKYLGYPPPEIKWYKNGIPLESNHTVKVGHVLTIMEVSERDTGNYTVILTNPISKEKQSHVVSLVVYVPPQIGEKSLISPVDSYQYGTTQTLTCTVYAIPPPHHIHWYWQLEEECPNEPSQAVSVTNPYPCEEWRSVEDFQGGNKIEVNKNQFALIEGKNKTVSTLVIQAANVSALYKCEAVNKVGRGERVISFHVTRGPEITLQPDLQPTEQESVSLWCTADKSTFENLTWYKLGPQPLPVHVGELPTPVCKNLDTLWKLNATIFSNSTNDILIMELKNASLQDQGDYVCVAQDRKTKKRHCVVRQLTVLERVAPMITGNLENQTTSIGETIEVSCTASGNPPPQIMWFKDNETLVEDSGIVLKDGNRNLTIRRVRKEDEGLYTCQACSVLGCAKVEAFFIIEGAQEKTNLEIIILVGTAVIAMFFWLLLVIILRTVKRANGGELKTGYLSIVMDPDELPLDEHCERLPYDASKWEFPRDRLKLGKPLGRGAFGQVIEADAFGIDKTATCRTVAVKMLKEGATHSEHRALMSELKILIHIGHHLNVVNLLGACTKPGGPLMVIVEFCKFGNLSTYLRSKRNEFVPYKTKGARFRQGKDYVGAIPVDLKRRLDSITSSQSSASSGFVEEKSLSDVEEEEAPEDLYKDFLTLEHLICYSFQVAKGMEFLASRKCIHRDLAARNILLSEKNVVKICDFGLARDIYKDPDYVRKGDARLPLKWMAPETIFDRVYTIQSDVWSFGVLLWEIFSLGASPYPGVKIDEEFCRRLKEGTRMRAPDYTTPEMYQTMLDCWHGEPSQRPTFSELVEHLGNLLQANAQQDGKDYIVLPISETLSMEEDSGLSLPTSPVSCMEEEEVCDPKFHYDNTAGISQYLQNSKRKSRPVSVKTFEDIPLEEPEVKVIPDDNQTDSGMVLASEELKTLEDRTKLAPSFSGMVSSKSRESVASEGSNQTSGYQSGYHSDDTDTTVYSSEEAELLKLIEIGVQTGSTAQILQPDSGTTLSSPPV
T5 sequence (P35968 20-764): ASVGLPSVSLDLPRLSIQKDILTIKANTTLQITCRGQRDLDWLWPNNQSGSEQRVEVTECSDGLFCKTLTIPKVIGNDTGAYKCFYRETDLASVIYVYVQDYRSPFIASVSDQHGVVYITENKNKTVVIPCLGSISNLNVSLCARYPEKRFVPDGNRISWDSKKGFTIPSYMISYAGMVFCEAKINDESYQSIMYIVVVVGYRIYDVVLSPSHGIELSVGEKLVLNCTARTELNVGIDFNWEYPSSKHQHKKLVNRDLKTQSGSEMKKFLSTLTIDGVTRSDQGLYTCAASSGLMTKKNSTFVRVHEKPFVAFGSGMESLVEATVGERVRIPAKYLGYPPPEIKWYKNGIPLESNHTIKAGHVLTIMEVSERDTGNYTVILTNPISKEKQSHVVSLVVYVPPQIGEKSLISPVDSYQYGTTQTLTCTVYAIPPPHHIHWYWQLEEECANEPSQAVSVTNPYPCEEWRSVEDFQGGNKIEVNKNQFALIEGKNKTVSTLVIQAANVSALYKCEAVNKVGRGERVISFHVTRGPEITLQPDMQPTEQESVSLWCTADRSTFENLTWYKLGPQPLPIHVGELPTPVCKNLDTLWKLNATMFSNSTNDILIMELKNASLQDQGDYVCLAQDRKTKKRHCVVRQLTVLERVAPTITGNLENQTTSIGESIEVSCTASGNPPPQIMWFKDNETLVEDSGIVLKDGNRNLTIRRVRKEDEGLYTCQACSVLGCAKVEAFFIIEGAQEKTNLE
T4 sequence (P35968 20-1356): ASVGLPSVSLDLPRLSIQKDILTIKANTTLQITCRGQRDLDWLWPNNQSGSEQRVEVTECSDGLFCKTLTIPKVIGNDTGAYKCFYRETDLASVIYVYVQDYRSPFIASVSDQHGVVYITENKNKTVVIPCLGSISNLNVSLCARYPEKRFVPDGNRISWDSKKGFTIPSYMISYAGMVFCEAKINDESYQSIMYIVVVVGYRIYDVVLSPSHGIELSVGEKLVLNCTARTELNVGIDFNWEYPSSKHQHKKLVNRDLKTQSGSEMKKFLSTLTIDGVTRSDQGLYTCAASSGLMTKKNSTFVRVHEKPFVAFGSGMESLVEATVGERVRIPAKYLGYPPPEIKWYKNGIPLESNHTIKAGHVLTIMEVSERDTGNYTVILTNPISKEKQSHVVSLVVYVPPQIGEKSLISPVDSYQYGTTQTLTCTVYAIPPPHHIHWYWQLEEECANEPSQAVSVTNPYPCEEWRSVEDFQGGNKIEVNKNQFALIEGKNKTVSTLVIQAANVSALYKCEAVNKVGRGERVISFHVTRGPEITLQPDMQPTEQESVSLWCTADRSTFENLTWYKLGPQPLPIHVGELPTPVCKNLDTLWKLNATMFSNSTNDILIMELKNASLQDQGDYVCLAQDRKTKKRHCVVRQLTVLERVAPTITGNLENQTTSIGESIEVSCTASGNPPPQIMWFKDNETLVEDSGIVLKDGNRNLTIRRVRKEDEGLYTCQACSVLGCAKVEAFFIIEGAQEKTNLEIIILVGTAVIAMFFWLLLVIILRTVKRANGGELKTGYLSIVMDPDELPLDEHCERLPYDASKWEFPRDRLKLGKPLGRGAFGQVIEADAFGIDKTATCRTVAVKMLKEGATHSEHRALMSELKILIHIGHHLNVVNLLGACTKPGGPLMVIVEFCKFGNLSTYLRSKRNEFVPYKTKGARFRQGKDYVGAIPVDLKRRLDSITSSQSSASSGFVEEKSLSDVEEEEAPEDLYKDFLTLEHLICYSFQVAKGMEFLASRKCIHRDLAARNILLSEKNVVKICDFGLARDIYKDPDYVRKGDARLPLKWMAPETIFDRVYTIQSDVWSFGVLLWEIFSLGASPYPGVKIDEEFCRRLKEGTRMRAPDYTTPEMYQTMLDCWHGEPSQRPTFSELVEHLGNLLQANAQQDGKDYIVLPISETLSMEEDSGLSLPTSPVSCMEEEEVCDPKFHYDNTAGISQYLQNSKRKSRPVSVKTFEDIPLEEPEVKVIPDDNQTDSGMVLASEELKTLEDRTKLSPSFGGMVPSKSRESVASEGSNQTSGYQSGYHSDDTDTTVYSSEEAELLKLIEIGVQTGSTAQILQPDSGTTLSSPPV
T2 sequence (P35968 328-764): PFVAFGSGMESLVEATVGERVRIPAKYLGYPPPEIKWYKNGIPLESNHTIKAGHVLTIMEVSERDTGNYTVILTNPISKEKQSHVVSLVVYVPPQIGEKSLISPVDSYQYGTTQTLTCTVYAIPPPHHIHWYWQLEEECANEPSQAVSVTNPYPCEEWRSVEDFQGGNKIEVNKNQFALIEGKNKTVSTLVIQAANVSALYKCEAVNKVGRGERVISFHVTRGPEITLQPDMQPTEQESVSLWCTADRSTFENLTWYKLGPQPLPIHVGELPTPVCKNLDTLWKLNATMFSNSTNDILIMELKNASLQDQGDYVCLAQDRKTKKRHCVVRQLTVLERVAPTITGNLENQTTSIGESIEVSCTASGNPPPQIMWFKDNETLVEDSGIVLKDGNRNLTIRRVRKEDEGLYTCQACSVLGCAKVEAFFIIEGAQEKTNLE
T1 sequence (P35918 20-762 limits assumed): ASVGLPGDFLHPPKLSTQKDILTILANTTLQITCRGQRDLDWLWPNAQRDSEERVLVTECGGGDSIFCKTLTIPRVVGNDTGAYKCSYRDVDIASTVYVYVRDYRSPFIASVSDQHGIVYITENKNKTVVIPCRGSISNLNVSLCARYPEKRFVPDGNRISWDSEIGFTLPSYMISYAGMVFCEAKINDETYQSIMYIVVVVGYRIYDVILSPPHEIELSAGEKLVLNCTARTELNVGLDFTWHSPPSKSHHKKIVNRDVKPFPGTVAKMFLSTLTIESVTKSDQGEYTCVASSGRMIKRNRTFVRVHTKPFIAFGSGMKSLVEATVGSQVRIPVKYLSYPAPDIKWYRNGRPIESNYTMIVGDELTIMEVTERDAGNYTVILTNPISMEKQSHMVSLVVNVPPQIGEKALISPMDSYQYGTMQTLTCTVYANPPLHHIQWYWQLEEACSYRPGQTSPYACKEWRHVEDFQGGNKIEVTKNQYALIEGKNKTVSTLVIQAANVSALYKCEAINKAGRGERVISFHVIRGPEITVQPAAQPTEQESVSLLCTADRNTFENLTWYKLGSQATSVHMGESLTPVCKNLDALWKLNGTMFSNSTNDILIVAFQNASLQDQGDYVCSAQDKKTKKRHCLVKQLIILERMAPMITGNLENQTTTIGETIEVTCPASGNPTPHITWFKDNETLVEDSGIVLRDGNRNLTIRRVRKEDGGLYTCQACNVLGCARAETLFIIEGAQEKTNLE

B1: 22B8 (antibody, V domains shown)
VH: QLQLQESGPGLVKPSETLSLTCTVSGGSISSRYYYWGWVRQPPGKGLEWIGTIYYSGHTYYNPSLKTRVTISVDTSKNQFSLKLISVTAADTAVYYCATQQLVLYYFDFWGQGTLVTVSS
VL: EIVLTQSPGTLSLSPGERAALSCRASQSISSSYLAWYQQRPGQAPRLLIYGASSRATGIPDRFNGSGSGTDFTLTISRLEPEDFAVYYCQQFGSSITFGQGTRLEIK
notes: Fully human monoclonal antibody from a XenoMouse hybridoma (IgG2 or IgG4 strain), purified
- ELISA reading [1]: 3.21
- ELISA reading (soluble KDR Ig4-7 domain [2]): 0.078
- FACS Geometric Mean Fluorescence (cynomolgus KDR): 103
- KDR tyrosine phosphorylation in HUVEC, EC50 (nM), Average (human KDR [3]): 3.1 nM
- KDR tyrosine phosphorylation in HUVEC, EC50 (nM), N = 1 (human KDR [3]): 2.7 nM
- KDR tyrosine phosphorylation in HUVEC, EC50 (nM), N = 2 (human KDR [3]): 3.4 nM
- KDR tyrosine phosphorylation in HUVEC, Maximum Inhibition at 100 nM (% Inhibition), Average (human KDR [3]): 77%
- KDR tyrosine phosphorylation in HUVEC, Maximum Inhibition at 100 nM (% Inhibition), N = 1 (human KDR [3]): 75%
- KDR tyrosine phosphorylation in HUVEC, Maximum Inhibition at 100 nM (% Inhibition), N = 2 (human KDR [3]): 79%
- ELISA reading [4]: 2.94
- ELISA reading [5]: 1.91
- % Inhibition (human KDR [6]): 7%
- Kd (human KDR [7]): 1.8 nM
- ELISA reading (soluble KDR Ig4-7 domain [8]): 0.074
- ELISA reading [9]: 1.2
- 6-keto Prostaglandin F1α release, EC50 (nM), Average (human KDR [10]): 5.3 nM
- 6-keto Prostaglandin F1α release, EC50 (nM), N = 1 (human KDR [10]): 5.1 nM
- 6-keto Prostaglandin F1α release, EC50 (nM), N = 2 (human KDR [10]): 5.6 nM
- 6-keto Prostaglandin F1α release, Maximum Inhibition (% Inhibition), Average (human KDR [10]): 70%
- 6-keto Prostaglandin F1α release, Maximum Inhibition (% Inhibition), N = 1 (200 nM) (human KDR [10]): 63%
- 6-keto Prostaglandin F1α release, Maximum Inhibition (% Inhibition), N = 2 (333 nM) (human KDR [10]): 76%
- FACS Geometric Mean Fluorescence (bound VEGF165) (human KDR [11]): 120
- ELISA reading (soluble KDR Ig4-7 domain [12]): 0.08
- ELISA reading [13]: 0.075
- HUVEC survival, Maximum Inhibition at 50 nM (% Inhibition), Average (human KDR [14]): 87%
- HUVEC survival, Maximum Inhibition at 50 nM (% Inhibition), N = 1 (human KDR [14]): 80%
- HUVEC survival, Maximum Inhibition at 50 nM (% Inhibition), N = 2 (human KDR [14]): 95%
- ELISA reading [15]: 0.089

B2: 33E1 (antibody, V domains shown)
VH: QVQLQESGPGLVKPSQTLSLTCTVSGGSISSGDHYWSWIRQHPGKGLEWIGHIYYSGSTDYNPSLKSRVTISVDTSKNHFSLKLNSVTAADTAVYYCARTNSSSWSDWYFDLWGRGTLVTVSS
VL: DIVMTQSPDSLAVSLGERATINCKSSQSILYSSNNKNYLAWYQRKPGQPPILLIHWASTRESGVPDRFSGSGSRTDFTLTISSLQAEDVAVYYCQQYFITPWTFGQGTKVEIK
notes: as for B1
- ELISA reading [1]: 2.17
- ELISA reading (soluble KDR Ig4-7 domain [2]): 0.074
- FACS Geometric Mean Fluorescence (cynomolgus KDR): 88.5
- KDR tyrosine phosphorylation in HUVEC, EC50 (nM), Average (human KDR [3]): 5.5 nM
- KDR tyrosine phosphorylation in HUVEC, EC50 (nM), N = 1 (human KDR [3]): 5.8 nM
- KDR tyrosine phosphorylation in HUVEC, EC50 (nM), N = 2 (human KDR [3]): 5.1 nM
- KDR tyrosine phosphorylation in HUVEC, Maximum Inhibition at 100 nM (% Inhibition), Average (human KDR [3]): 74%
- KDR tyrosine phosphorylation in HUVEC, Maximum Inhibition at 100 nM (% Inhibition), N = 1 (human KDR [3]): 73%
- KDR tyrosine phosphorylation in HUVEC, Maximum Inhibition at 100 nM (% Inhibition), N = 2 (human KDR [3]): 75%
- ELISA reading [4]: 1.47
- ELISA reading [5]: 1.38
- % Inhibition (human KDR [6]): -15%
- Kd (human KDR [7]): 3.8 nM
- ELISA reading (soluble KDR Ig4-7 domain [8]): 0.067
- ELISA reading [9]: 0.846
- 6-keto Prostaglandin F1α release, EC50 (nM), Average (human KDR [10]): 5.1 nM
- 6-keto Prostaglandin F1α release, EC50 (nM), N = 1 (human KDR [10]): 4.8 nM
- 6-keto Prostaglandin F1α release, EC50 (nM), N = 2 (human KDR [10]): 5.4 nM
- 6-keto Prostaglandin F1α release, Maximum Inhibition (% Inhibition), Average (human KDR [10]): 90%
- 6-keto Prostaglandin F1α release, Maximum Inhibition (% Inhibition), N = 1 (200 nM) (human KDR [10]): 77%
- 6-keto Prostaglandin F1α release, Maximum Inhibition (% Inhibition), N = 2 (333 nM) (human KDR [10]): 103%
- FACS Geometric Mean Fluorescence (bound VEGF165) (human KDR [11]): 147
- ELISA reading (soluble KDR Ig4-7 domain [12]): 0.107
- ELISA reading [13]: 0.081
- HUVEC survival, Maximum Inhibition at 50 nM (% Inhibition), Average (human KDR [14]): 103%
- HUVEC survival, Maximum Inhibition at 50 nM (% Inhibition), N = 1 (human KDR [14]): 107%
- HUVEC survival, Maximum Inhibition at 50 nM (% Inhibition), N = 2 (human KDR [14]): 99%
- ELISA reading [15]: 0.205

B3: 31E11 (antibody, V domains shown)
VH: QVQLVESGGGLVKPGGSLRLSCAASGFTFSDYYMSWIRQAPGKGLEWVSYISISGSTIYYADSVKGRFTISRDNAKNSLYLQMNSLRAEDTAVYYCARDDFWSGYYFNWFDPWGQGTLVTVSS
VL: DIQMTQSPSSLSASVGDRVTITCRANQTISTFLNWYQQNPGKAPKLLIYAASSLQSGVPSRFSGSGSGTDFTLTISSLQPEDFATYYCQQTYIIPLTFGGGTKVEIK
notes: as for B1
- ELISA reading [1]: 3.1
- ELISA reading (soluble KDR Ig4-7 domain [2]): 0.073
- FACS Geometric Mean Fluorescence (cynomolgus KDR): 99.5
- KDR tyrosine phosphorylation in HUVEC, EC50 (nM), Average (human KDR [3]): 1.9 nM
- KDR tyrosine phosphorylation in HUVEC, EC50 (nM), N = 1 (human KDR [3]): 2 nM
- KDR tyrosine phosphorylation in HUVEC, EC50 (nM), N = 2 (human KDR [3]): 1.9 nM
- KDR tyrosine phosphorylation in HUVEC, Maximum Inhibition at 100 nM (% Inhibition), Average (human KDR [3]): 85%
- KDR tyrosine phosphorylation in HUVEC, Maximum Inhibition at 100 nM (% Inhibition), N = 1 (human KDR [3]): 84%
- KDR tyrosine phosphorylation in HUVEC, Maximum Inhibition at 100 nM (% Inhibition), N = 2 (human KDR [3]): 86%
- ELISA reading [4]: 2.37
- ELISA reading [5]: 1.96
- % Inhibition (human KDR [6]): -8%
- Kd (human KDR [7]): 11.3 nM
- ELISA reading (soluble KDR Ig4-7 domain [8]): 0.072
- ELISA reading [9]: 0.826
- 6-keto Prostaglandin F1α release, EC50 (nM), Average (human KDR [10]): 6.2 nM
- 6-keto Prostaglandin F1α release, EC50 (nM), N = 1 (human KDR [10]): 6.1 nM
- 6-keto Prostaglandin F1α release, EC50 (nM), N = 2 (human KDR [10]): 6.4 nM
- 6-keto Prostaglandin F1α release, Maximum Inhibition (% Inhibition), Average (human KDR [10]): 98%
- 6-keto Prostaglandin F1α release, Maximum Inhibition (% Inhibition), N = 1 (200 nM) (human KDR [10]): 88%
- 6-keto Prostaglandin F1α release, Maximum Inhibition (% Inhibition), N = 2 (333 nM) (human KDR [10]): 108%
- FACS Geometric Mean Fluorescence (bound VEGF165) (human KDR [11]): 138
- ELISA reading (soluble KDR Ig4-7 domain [12]): 0.107
- ELISA reading [13]: 0.08
- HUVEC survival, Maximum Inhibition at 50 nM (% Inhibition), Average (human KDR [14]): 101%
- HUVEC survival, Maximum Inhibition at 50 nM (% Inhibition), N = 1 (human KDR [14]): 101%
- HUVEC survival, Maximum Inhibition at 50 nM (% Inhibition), N = 2 (human KDR [14]): 101%
- ELISA reading [15]: 0.161
